Patent publication US20210246166A1 (Bayer, published 2021)
Values belong to the binder of their own block, whether it stands above or below them. Numbered stars: 1 amine (or outer) side, 2 acyl side, 3 side chain; on linkers, the order of the positions; unused ones are H or OH. Bridge positions count the residues as written; N and C are the ends. Square brackets hold non-standard residues; d marks the D form. Ends that are not written are not given here. Freidinger's Lactam = (2S)-2-[(3R)-3-amino-2-oxopyrrolidin-1-yl]-4-methylpentanoic acid (Freidinger's lactam), CC(C)C[C@@H](C(=O)[*:2])N1CC[C@@H](N[*:1])C1=O; X13 = (2S)‑2‑amino‑3‑(1-methylcyclopropyl)propanoic acid, CC1(C[C@H](N[*:1])C(=O)[*:2])CC1; X15 = (3S)‑2‑azaspiro(4.4)nonane‑3‑carboxylic acid, O=C([C@@H]1CC2(CCCC2)CN1[*:1])[*:2]; X11 = (S)‑Piperidine‑3‑carboxylic acid, O=C([C@H]1CCCN([*:1])C1)[*:2]; Nip(3R) = O=C([C@@H]1CCCN([*:1])C1)[*:2]; Oic = O=C(O)[C@@H]1C[C@@H]2CCCC[C@@H]2N1; βPro(3R) = O=C([C@@H]1CCN([*:1])C1)[*:2]; tBuAla = CC(C)(C)C[C@H](N)C(=O)O; Pen = CC(C)(S)[C@H](N)C(=O)O; Sar = CNCC(=O)O

Assays:
[1] = molecular target: T1, Recombinant human MASP1 enzyme (fragment corresponding to amino acids 297-699, C-terminal His Tag) (human, UniProt P48740 297-699); assay: cell-based or functional assay
T1 sequence: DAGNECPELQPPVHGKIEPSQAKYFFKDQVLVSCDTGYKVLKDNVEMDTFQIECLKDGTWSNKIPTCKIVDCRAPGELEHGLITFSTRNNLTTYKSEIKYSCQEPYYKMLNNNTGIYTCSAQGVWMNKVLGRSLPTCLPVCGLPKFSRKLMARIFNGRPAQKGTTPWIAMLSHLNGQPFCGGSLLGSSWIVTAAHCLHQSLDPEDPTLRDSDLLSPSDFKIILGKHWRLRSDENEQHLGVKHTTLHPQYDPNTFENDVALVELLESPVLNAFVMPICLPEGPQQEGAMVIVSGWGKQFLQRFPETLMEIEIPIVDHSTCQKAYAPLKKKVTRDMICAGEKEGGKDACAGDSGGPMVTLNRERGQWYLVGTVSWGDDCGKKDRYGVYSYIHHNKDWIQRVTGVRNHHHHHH

[2] = molecular target: Recombinant human MASP2 enzyme (fragment corresponding to amino acids 297-686, C-terminal His Tag) (human, UniProt O00187 297-686); assay: cell-based or functional assay
Recombinant human MASP2 enzyme (fragment corresponding to amino acids 297-686, C-terminal His Tag), sequence (O00187 other isoform, or with tags, fused parts or gaps limits assumed): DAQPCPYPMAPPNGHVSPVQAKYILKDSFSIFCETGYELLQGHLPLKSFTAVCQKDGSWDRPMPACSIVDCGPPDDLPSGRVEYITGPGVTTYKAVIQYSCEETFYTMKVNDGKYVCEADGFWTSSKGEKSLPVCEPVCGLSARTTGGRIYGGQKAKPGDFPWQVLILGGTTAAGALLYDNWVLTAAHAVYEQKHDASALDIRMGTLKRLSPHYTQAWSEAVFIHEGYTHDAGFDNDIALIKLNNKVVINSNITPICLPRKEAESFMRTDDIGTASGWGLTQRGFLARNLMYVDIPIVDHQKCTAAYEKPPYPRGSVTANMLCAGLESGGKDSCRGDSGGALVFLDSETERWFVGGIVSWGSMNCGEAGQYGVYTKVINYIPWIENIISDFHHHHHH

B1: ((N-Me)G)-IC+SRS-((tBu)A)-P-((3S)-2-azaspiro[4.4]nonane-3-carboxylic acid)-I-(Pen)+IPD-OH (peptide)
peptide: [Sar]ICSRS[tBuAla]P[X15]I[Pen]IPD-OH
modifications: disulfide 3-11; N-terminus assumed
SMILES: CC[C@H](C)[C@H](NC(=O)CNC)C(=O)N[C@H]1CSSC(C)(C)[C@@H](C(=O)N[C@H](C(=O)N2CCC[C@H]2C(=O)N[C@@H](CC(=O)O)C(=O)O)[C@@H](C)CC)NC(=O)[C@H]([C@@H](C)CC)NC(=O)[C@@H]2CC3(CCCC3)CN2C(=O)[C@@H]2CCCN2C(=O)[C@H](CC(C)(C)C)NC(=O)[C@H](CO)NC(=O)[C@H](CCCNC(=N)N)NC(=O)[C@H](CO)NC1=O
human MASP1 IC50 [1]: 17.1 nM
human MASP2 IC50 [2]: 261 nM

B3: ((N-Me)G)-IC+SRS-((2S)-2-amino-3-(1-methylcyclopropyl)propanoic acid)-P-(Oic)-I-(Pen)+IPD-OH (peptide)
peptide: [Sar]ICSRS[X13]P[Oic]I[Pen]IPD-OH
modifications: disulfide 3-11; N-terminus assumed
SMILES: CC[C@H](C)[C@H](NC(=O)CNC)C(=O)N[C@H]1CSSC(C)(C)[C@@H](C(=O)N[C@H](C(=O)N2CCC[C@H]2C(=O)N[C@@H](CC(=O)O)C(=O)O)[C@@H](C)CC)NC(=O)[C@H]([C@@H](C)CC)NC(=O)[C@@H]2C[C@@H]3CCCC[C@@H]3N2C(=O)[C@@H]2CCCN2C(=O)[C@H](CC2(C)CC2)NC(=O)[C@H](CO)NC(=O)[C@H](CCCNC(=N)N)NC(=O)[C@H](CO)NC1=O
human MASP1 IC50 [1]: 20 nM
human MASP2 IC50 [2]: 230 nM

B5: ((N-Me)G)-IC+SRSLP-(Oic)-I-(Pen)+IP-(Freidinger's Lactam)-OH (peptide)
peptide: [Sar]ICSRSLP[Oic]I[Pen]IP[Freidinger's Lactam]-OH
modifications: disulfide 3-11; N-terminus assumed
SMILES: CC[C@H](C)[C@H](NC(=O)CNC)C(=O)N[C@H]1CSSC(C)(C)[C@@H](C(=O)N[C@H](C(=O)N2CCC[C@H]2C(=O)N[C@@H]2CCN([C@@H](CC(C)C)C(=O)O)C2=O)[C@@H](C)CC)NC(=O)[C@H]([C@@H](C)CC)NC(=O)[C@@H]2C[C@@H]3CCCC[C@@H]3N2C(=O)[C@@H]2CCCN2C(=O)[C@H](CC(C)C)NC(=O)[C@H](CO)NC(=O)[C@H](CCCNC(=N)N)NC(=O)[C@H](CO)NC1=O
human MASP1 IC50 [1]: 23 nM
human MASP2 IC50 [2]: 96 nM

B7: ((N-Me)G)-IC+SRSLP-(Oic)-I-(Pen)+IP-((R)-Pyrrolidine-3-carboxylic acid)-OH (peptide)
peptide: [Sar]ICSRSLP[Oic]I[Pen]IP[βPro(3R)]-OH
modifications: disulfide 3-11; N-terminus assumed
SMILES: CC[C@H](C)[C@H](NC(=O)CNC)C(=O)N[C@H]1CSSC(C)(C)[C@@H](C(=O)N[C@H](C(=O)N2CCC[C@H]2C(=O)N2CC[C@@H](C(=O)O)C2)[C@@H](C)CC)NC(=O)[C@H]([C@@H](C)CC)NC(=O)[C@@H]2C[C@@H]3CCCC[C@@H]3N2C(=O)[C@@H]2CCCN2C(=O)[C@H](CC(C)C)NC(=O)[C@H](CO)NC(=O)[C@H](CCCNC(=N)N)NC(=O)[C@H](CO)NC1=O
human MASP1 IC50 [1]: 28 nM
human MASP2 IC50 [2]: 166 nM

Next, values leading:

human MASP1 IC50 [1]: 8.2 nM
human MASP2 IC50 [2]: 140 nM
B2: ((S)-Piperidine-3-carboxylic acid)-IC+SRSLP-(Oic)-I-(Pen)+I-OH (peptide)
peptide: [X11]ICSRSLP[Oic]I[Pen]I-OH
modifications: disulfide 3-11; N-terminus assumed
SMILES: CC[C@H](C)[C@H](NC(=O)[C@H]1NC(=O)[C@H]([C@@H](C)CC)NC(=O)[C@@H]2C[C@@H]3CCCC[C@@H]3N2C(=O)[C@@H]2CCCN2C(=O)[C@H](CC(C)C)NC(=O)[C@H](CO)NC(=O)[C@H](CCCNC(=N)N)NC(=O)[C@H](CO)NC(=O)[C@@H](NC(=O)[C@@H](NC(=O)[C@H]2CCCNC2)[C@@H](C)CC)CSSC1(C)C)C(=O)O

human MASP1 IC50 [1]: 3.8 nM
human MASP2 IC50 [2]: 260 nM
B4: ((N-Me)G)-IC+SRSLP-(Oic)-I-(Pen)+IPDK-OH (peptide)
peptide: [Sar]ICSRSLP[Oic]I[Pen]IPDK-OH
modifications: disulfide 3-11; N-terminus assumed
SMILES: CC[C@H](C)[C@H](NC(=O)CNC)C(=O)N[C@H]1CSSC(C)(C)[C@@H](C(=O)N[C@H](C(=O)N2CCC[C@H]2C(=O)N[C@@H](CC(=O)O)C(=O)N[C@@H](CCCCN)C(=O)O)[C@@H](C)CC)NC(=O)[C@H]([C@@H](C)CC)NC(=O)[C@@H]2C[C@@H]3CCCC[C@@H]3N2C(=O)[C@@H]2CCCN2C(=O)[C@H](CC(C)C)NC(=O)[C@H](CO)NC(=O)[C@H](CCCNC(=N)N)NC(=O)[C@H](CO)NC1=O

human MASP1 IC50 [1]: 4.3 nM
human MASP2 IC50 [2]: 200 nM
B6: ((R)-Piperidine-3-carboxylic acid)-IC+SRSLP-(Oic)-I-(Pen)+I-OH (peptide)
peptide: [Nip(3R)]ICSRSLP[Oic]I[Pen]I-OH
modifications: disulfide 3-11; N-terminus assumed
SMILES: CC[C@H](C)[C@H](NC(=O)[C@H]1NC(=O)[C@H]([C@@H](C)CC)NC(=O)[C@@H]2C[C@@H]3CCCC[C@@H]3N2C(=O)[C@@H]2CCCN2C(=O)[C@H](CC(C)C)NC(=O)[C@H](CO)NC(=O)[C@H](CCCNC(=N)N)NC(=O)[C@H](CO)NC(=O)[C@@H](NC(=O)[C@@H](NC(=O)[C@@H]2CCCNC2)[C@@H](C)CC)CSSC1(C)C)C(=O)O
